These results are taken from IntAct's records for PubMed 10887173.

First the molecules themselves.
B1: 14-3-3 protein zeta/delta (Homo sapiens), P63104 (parent)
chain: MDKNELVQKAKLAEQAERYDDMAACMKSVTEQGAELSNEERNLLSVAYKNVVGARRSSWRVVSSIEQKTEGAEKKQQMAREYREKIETELRDICNDVLSLLEKFLIPNASQAESKVFYLKMKGDYYRYLAEVAAGDDKKGIVDQSQQAYQEAFEISKKEMQPTHPIRLGLALNFSVFYYEILNSPEKACSLAKTAFDEAIAELDTLSEESYKDSTLIMQLLRDNLTLWTSDTQGDEAEAGEGGEN

The test covers variants of B1. To be noted: with vime_chlae VIM.
In the case of E5K;L12Q;A13Q;E14R;Y82Q;K85N;E87Q, the “effect of a mutation on the interaction” value is on record as “decreasing interaction”.
